One substance from patent US20140072980A1 can be followed below.

In test [1] the target is IgG1 Fc/Fc monospecific antibody. The experiment in a line: flow cytometry: antibody displayed on CHO cells by CSCP FcγR, detected with Anti-hFc. For orientation: In flow cytometry, cells or beads pass a laser one at a time.
The target in test [2] is IgG1 Fc/Fc* bispecific antibody. The description is as above.

For the substance “human FcγRI (from UniProt P12314 16-374) (receptor)”, the Mean Fluorescence Intensity (MFI) turned out to be 1000 MFI in test [1] and 1800 MFI in test [2].
